From PMC3998512 (DNA repair, 2013)

Legend:
GST tagged human Cdk1 = GST tagged human Cdk1 (human, UniProt P06493 1-297); assay: far-Western, overlay or dot blot
His tagged human PCNA = His tagged human PCNA (human, UniProt P12004 1-261); assay: far-Western, overlay or dot blot
His tagged human PCNA, sequence (P12004 whole entry): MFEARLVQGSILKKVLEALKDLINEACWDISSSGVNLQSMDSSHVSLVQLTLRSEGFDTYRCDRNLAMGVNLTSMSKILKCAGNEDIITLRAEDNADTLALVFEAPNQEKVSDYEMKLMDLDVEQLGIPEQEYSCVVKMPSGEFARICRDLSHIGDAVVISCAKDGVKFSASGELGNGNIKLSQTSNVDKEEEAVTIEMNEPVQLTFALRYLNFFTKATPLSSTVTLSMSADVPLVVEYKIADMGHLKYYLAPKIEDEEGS

GST tagged human Cdk1, sequence (P06493 whole entry): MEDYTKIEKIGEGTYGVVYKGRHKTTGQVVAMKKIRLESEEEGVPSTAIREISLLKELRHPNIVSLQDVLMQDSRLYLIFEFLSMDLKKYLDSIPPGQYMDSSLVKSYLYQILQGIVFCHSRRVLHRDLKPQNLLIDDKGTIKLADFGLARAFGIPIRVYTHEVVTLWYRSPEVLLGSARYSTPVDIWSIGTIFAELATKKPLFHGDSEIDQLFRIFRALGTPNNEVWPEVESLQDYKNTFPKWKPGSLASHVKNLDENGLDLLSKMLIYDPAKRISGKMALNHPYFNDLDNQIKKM

| binding result (GST tagged human Cdk1) | binding result (His tagged human PCNA) | Binder |
| --- | --- | --- |
| binds |  | His tagged human Δ16mtSSB (mtSSB lacking 16 N-terminal amino acids) (natural protein, UniProt Q04837 17-148, looked up) ESETTTSLVLERSLNRVHLLGRVGQDPVLRQVEGKNPVTIFSLATNEMWRSGDSEVYQLGDVSQKTTWHRISVFRPGLRDVAYQYVKKGSRIYLEGKIDYGEYMDKNNVRRQATTIIADNIIFLSDQTKEKE |
|  | binds | human recombinant Δ80AAG (AAG lacking the first 80 amino acids) (domain or fragment, UniProt P29372 81-298, looked up) GHLTRLGLEFFDQPAVPLARAFLGQVLVRRLPNGTELRGRIVETEAYLGPEDEAAHSRGGRQTPRNRGMFMKPGTLYVYIIYGMYFCMNISSQGDGACVLLRALEPLEGLETMRQLRSTLRKGTASRVLKDRELCSGPSKLCQALAINKSFDQRDLAQDEAVWLERGPLEPSEPAVVAAARVGVGHAGEWARKPLRFYVRGSPWVSVVDRVAEQDTQA |
